From patent US20200087363A1 (IMMATICS BIOTECHNOLOGIES, published 2020)

molecular target: T1, HLA-B*44:05 (human); test: UV peptide exchange, anti-b2m ELISA
T1 construct: also called peptide-receptive MHC class I molecule
Method: Only peptide candidates that can effectively bind and stabilize the peptide-receptive MHC molecules prevent dissociation of the MHC complexes. To determine the yield of the exchange reaction, an ELISA was performed based on the detection of the light chain (β2m) of stabilized MHC complexes. The assay was performed as generally described in Rodenko et al. (Rodenko et al., 2006)
96 well MAXISorp plates (NUNC) were coated over night with 2 ug/ml streptavidin in PBS at room temperature, washed 4× and blocked for 1 h at 37° C. in 2% BSA containing blocking buffer. […] Peptide-MHC monomers of the UV-exchange reaction were diluted 100-fold in blocking buffer. Samples were incubated for 1 h at 37° C., washed four times, incubated with 2 ug/ml HRP conjugated anti-β2m for 1 h at 37° C., washed again and detected with TMB solution that is stopped with […]. Absorption was measured at 450 nm.

Row | peptide exchange yield | Binder
1 | 50 to 75% | QEIGQKTSV
2 | 50 to 75% | VEDDNYKLSL
3 | 50 to 75% | CDAQIQYSY
4 | 20 to 50% | EESSSPVDEY
5 | 50 to 75% | VESSQAFTW
6 | 50 to 75% | MEFQGPMPAGM
7 | 50 to 75% | HEHGLFNLY
8 | 50 to 75% | KESMLKTTL
9 | > 75% | YEMAIYKKY
10 | 50 to 75% | GETCVRITY
11 | 10 to 20% | KQWEYNEKLAF
12 | 20 to 50% | RLLPGKVVW
13 | > 75% | IEVSSPITL
14 | 50 to 75% | VELMFPLLL
15 | 50 to 75% | QEWDPQKTEKY
16 | 20 to 50% | YENILNAI
17 | 50 to 75% | AEQLRGFNA
18 | 50 to 75% | QEFPAHSL

Further lines, the binder ahead of its results:

Row | Binder | peptide exchange yield
19 | DEDYTYLIL | 20 to 50%
20 | MELQVSSGF | 50 to 75%
21 | QELLDIANYL | > 75%
22 | VEQINISQDW | > 75%
23 | KESQLPTVMDF | 50 to 75%
24 | AELDHLASL | 50 to 75%
25 | DESADSEPHKY | 10 to 20%
26 | EEFIGKIGI | 20 to 50%
27 | QEILHGAVRF | 50 to 75%
28 | QEVAGYVLI | 50 to 75%
29 | IEVSSPITLQAL | 20 to 50%
30 | RELIKAIGL | 50 to 75%
